The values that follow come from article PMC11189301, “Structure of the human outer kinetochore KMN network complex” (Nature Structural & Molecular Biology, 2024).

Sequences and labels used below:
B1: Knl1 residues 2131–2337, mut2 (S2270R S2272W) (domain or fragment, H. sapiens, UniProt Q8NG31 2131-2337, looked up)
chain: SLSEWDVVEWSDDQAVFTFVYDTIQLTITFEESVVGFPFLDKRYRKIVDVNFQSLLDEDQAPPSSLLVHKLIFQYVEEKESWKKTCTTQHQLPKMLEEFSLVVHHCRLLGEEIEYLKRWGPNYNLMNIDINNNELRLLFRSWAAFAKFEITLFLSAYYPSVPLPSTIQNHVGNTSQDDIATILSKVPLENNYLKNVVKQIYQDLFQD
notes: Knl1, human, residues 2131-2337, RWD-C surface mutant 2; also called Knl1^mut2; KNL1^mut2; source: E. coli BL21 (DE3), purified (Ni-NTA, reverse IMAC, Superdex 75); not shown: His6, N-terminal, cleaved
B2: MIS12 complex (Mis12, Pmf1, Dsn1, Nsl1), wild type, full length (complex, Homo sapiens)
chain 1: MSVDPMTYEAQFFGFTPQTCMLRIYIAFQDYLFEVMQAVEQVILKKLDGIPDCDISPVQIRKCTEKFLCFMKGHFDNLFSKMEQLFLQLILRIPSNILLPEDKCKETPYSEEDFQHLQKEIEQLQEKYKTELCTKQALLAELEEQKIVQAKLKQTLTFFDELHNVGRDHGTSDFRESLVSLVQNSRKLQNIRDNVEKESKRLKIS
chain 2: MAEASSANLGSGCEEKRHEGSSSESVPPGTTISRVKLLDTMVDTFLQKLVAAGSYQRFTDCYKCFYQLQPAMTQQIYDKFIAQLQTSIREEISDIKEEGNLEAVLNALDKIVEEGKVRKEPAWRPSGIPEKDLHSVMAPYFLQQRDTLRRHVQKQEAENQQLADAVLAGRRQVEELQLQVQAQQQAWQALHREQRELVAVLREPE
chain 3: MTSVTRSEIIDEKGPVMSKTHDHQLESSLSPVEVFAKTSASLEMNQGVSEERIHLGSSPKKGGNCDLSHQERLQSKSLHLSPQEQSASYQDRRQSWRRASMKETNRRKSLHPIHQGITELSRSISVDLAESKRLGCLLLSSFQFSIQKLEPFLRDTKGFSLESFRAKASSLSEELKHFADGLETDGTLQKCFEDSNGKASDFSLEASVAEMKEYITKFSLERQTWDQLLLHYQQEAKEILSRGSTEAKITEVKVEPMTYLGSSQNEVLNTKPDYQKILQNQSKVFDCMELVMDELQGSVKQLQAFMDESTQCFQKVSVQLGKRSMQQLDPSPARKLLKLQLQNPPAIHGSGSGSCQ
chain 4: MAGSPELVVLDPPWDKELAAGTESQALVSATPREDFRVRCTSKRAVTEMLQLCGRFVQKLGDALPEEIREPALRDAQWTFESAVQENISINGQAWQEASDNCFMDSDIKVLEDQFDEIIVDIATKRKQYPRKILECVIKTIKAKQEILKQYHPVVHPLDLKYDPDPAPHMENLKCRGETVAKEISEAMKSLPALIEQGEGFSQVLRMQPVIHLQRIHQEVFSSCHRKPDAKPENFITQIETTPTETASRKTSDMVLKRKQTKDCPQRKWYPLRPKKINLDT
notes: Mis12, subunit of human MIS12C; Pmf1, subunit of human MIS12C; Dsn1, subunit of human MIS12C; Nsl1, subunit of human MIS12C; The DS tag on Pmf1 is TEV cleavable; a cleavage is not described; also called MIS12C (WT); wild-type MIS12C; source: High-5 insect cells (baculovirus), purified (Strep-Tactin, Resource S, Superdex 200); copies: + + +
B3: Nsl1-E219R V220R F221A mutant: MIS12C with E219R V220R F221A substitutions in Nsl1 (protein)
chain 1: B2 chain 1
chain 2: B2 chain 2
chain 3: B2 chain 3
chain 4: B2 chain 4 with E219R, V220R, F221A
modifications: left off: double strep II (DS), C-terminal, state not stated
B4: Dsn1-P332W R334A L336R mutant: MIS12C with P332W/R334A/L336R substitutions in Dsn1 (protein)
chain 1: B2 chain 1
chain 2: B2 chain 2
chain 3: B2 chain 3 with P332W, R334A, L336R
chain 4: B2 chain 4
modifications: left off: double strep II (DS), C-terminal, state not stated
B5: MIS12 complex with Nsl1 E219R V220R F221A (complex, Homo sapiens)
chain 1: B2 chain 1
chain 2: B2 chain 2
chain 3: B2 chain 3
chain 4: B2 chain 4 with E219R, V220R, F221A
notes: Mis12, subunit of human MIS12C; Pmf1, subunit of human MIS12C; Dsn1, subunit of human MIS12C; Nsl1, subunit of human MIS12C, E219R V220R F221A; also called MIS12C^(Nsl1-E219R V220R F221A); MIS12C^(Nsl1 E219/RV220R/F221A); source: High-5 insect cells (baculovirus), purified (Strep-Tactin, Resource S, Superdex 200); copies: + + +
B6: Dsn1-P332W R334A L336R and Nsl1-E219R V220R F221A mutants: MIS12C combining the Dsn1 and Nsl1 interface mutants (protein)
chain 1: B2 chain 1
chain 2: B2 chain 2
chain 3: B2 chain 3 with P332W, R334A, L336R
chain 4: B2 chain 4 with E219R, V220R, F221A
modifications: left off: double strep II (DS), C-terminal, state not stated
B7: MIS12 complex with Dsn1 P332W R334A L336R (complex, Homo sapiens)
chain 1: B2 chain 1
chain 2: B2 chain 2
chain 3: B2 chain 3 with P332W, R334A, L336R
chain 4: B2 chain 4
notes: Mis12, subunit of human MIS12C; Pmf1, subunit of human MIS12C; Dsn1, subunit of human MIS12C, P332W R334A L336R; Nsl1, subunit of human MIS12C; also called MIS12C^(Dsn1-P332W R334A L336R); MIS12C^(Dsn1 P332W/R334A/L336R); source: High-5 insect cells (baculovirus), purified (Strep-Tactin, Resource S, Superdex 200); copies: + + +

Residue numbers refer to the chain shown, from its start. In names and notes the source's numbering stands.

One series concerns the target T1, MIS12C (WT) (Homo sapiens, UniProt Q6P1K2+Q96IY1+Q9H081+Q9H410).
T1 construct: TEV-cleavable double Strep II (DS) tag (C); made in house; host or cells: High-5 insect cells (baculovirus)
Nature of the series: Isothermal titration calorimetry (ITC), peptide titrated into wild-type MIS12C. To be noted: 20 °C, 20 mM HEPES pH 7.5, 100 mM NaCl, 1 mM TCEP, syringe Dsn1^92-113 W96A/R97A/R98A 1.0 mM, cell MIS12C(WT) 0.089 mM, listed as Dsn1^92–113 peptide with three Ala residues. The series is classed as binding. (ITC needs no label: the signal is the heat of the interaction.)

In series [1] the target is B2. Nature of the series: SEC; MIS12C or MIS12C^Nsl1ΔC mixed with Knl1 2131–2337 or its mutants at 4 µM each; 20 mM HEPES pH 7.8, 150 mM NaCl, 0.5 mM TCEP; Superose 6; fractions on SDS-PAGE. The conditions noted are these: both partners purified. In general terms: SEC sorts molecules by how far they enter the pores of the column.
Series [2] addresses T2, NDC80 complex (Ndc80, Nuf2, Spc24, Spc25), full length, unmodified (Homo sapiens, UniProt O14777 1-642; Q9BZD4 1-464; Q8NBT2 1-197; Q9HBM1 1-224).
T2 construct: Ndc80, subunit of human NDC80C; Nuf2, subunit of human NDC80C; Spc24, subunit of human NDC80C; Spc25, subunit of human NDC80C; The DS tag on Nuf2 is TEV cleavable; a cleavage is not described; Ndc80 and Nuf2 were in the cryo-EM sample but not seen at high resolution; also called wild-type NDC80; source: High-5 insect cells (baculovirus), purified (Strep-Tactin, Resource Q, Superdex 200); copies: …
Kind of series: SEC; MIS12C variant mixed with NDC80C at 4 µM each; 20 mM HEPES pH 7.8, 150 mM NaCl, 0.5 mM TCEP; Superose 6; fractions on SDS-PAGE. To be noted: both partners purified.

The test system of another series is NDC80C. Nature of the series: SEC assessment of MIS12C mutants binding to NDC80C. The arrangement: species or system Homo sapiens. To be noted: MIS12C mutant + wild-type NDC80 at 4 µM each; 20 mM HEPES pH 7.8, 150 mM NaCl, 0.5 mM TCEP; Superose 6; SDS-PAGE; at least two repeats. The procedure: Assessment of substitutions in the MIS12C–NDC80C interfaces
To test the effect of substitutions in the MIS12C–NDC80C interfaces, either wild-type MIS12C or three MIS12C mutants (MIS12C^Nsl1-E219R V220R F221A, MIS12C^Dsn1-P332W R334A L336R, MIS12C^Nsl1-E219R V220R F221A, Dsn1-P332W R334A L336R) were mixed with wild-type NDC80 at 4 µM each in a buffer of 20 mM HEPES (pH 7.8), 150 mM NaCl and 0.5 mM TCEP, and 50 µl was loaded onto a Superose 6 size-exclusion column (Cytiva).
Extended Data Fig. 7 Biochemical characterization of MIS12C:NDC80C interactions. a Coomassie blue-stained SDS-PAGE gels of the MIS12C:NDC80C interaction reconstitutions. MIS12C (WT), MIS12C with E219/RV220R/F221A substitutions in Nsl1 (MIS12C^Nsl1 E219/RV220R/F221A) and MIS12C with P332W/R334A/L336R substitutions in Dsn1 (MIS12C^Dsn1 P332W/R334A/L336R) were tested for binding to full-length, unmodified NDC80C. The binding experiments were repeated at least two independent times with identical results. The gels are aligned according to the fraction number of the protein sample eluted from the size exclusion column. b SEC elution chromatograms of all of the experiments described in (a). c. Comparison of the Spc24:Spc25 interaction with peptides from MIS12C and CENP-T (PDB ID: 3VZA ref. [29]). Source data

T2 sequence (O14777 whole entry, chain 1 of 4): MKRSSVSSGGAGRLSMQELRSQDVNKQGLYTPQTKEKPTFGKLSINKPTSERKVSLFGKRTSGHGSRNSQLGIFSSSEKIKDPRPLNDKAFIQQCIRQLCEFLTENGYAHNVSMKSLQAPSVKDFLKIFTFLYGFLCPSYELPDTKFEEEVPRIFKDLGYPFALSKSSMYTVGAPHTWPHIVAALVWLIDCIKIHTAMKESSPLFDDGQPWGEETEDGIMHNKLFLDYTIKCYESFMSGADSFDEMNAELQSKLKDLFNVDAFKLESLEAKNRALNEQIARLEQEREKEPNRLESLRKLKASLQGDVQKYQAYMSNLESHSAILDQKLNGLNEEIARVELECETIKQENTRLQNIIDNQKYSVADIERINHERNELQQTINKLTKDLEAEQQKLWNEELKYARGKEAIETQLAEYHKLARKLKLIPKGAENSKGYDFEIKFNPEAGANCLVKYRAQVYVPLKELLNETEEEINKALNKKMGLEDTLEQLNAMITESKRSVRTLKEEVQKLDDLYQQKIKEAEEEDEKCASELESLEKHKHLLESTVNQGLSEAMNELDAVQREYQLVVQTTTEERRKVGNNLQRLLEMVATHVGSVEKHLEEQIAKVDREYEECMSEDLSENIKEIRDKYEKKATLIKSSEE
T2 sequence (Q9BZD4 whole entry, chain 2 of 4): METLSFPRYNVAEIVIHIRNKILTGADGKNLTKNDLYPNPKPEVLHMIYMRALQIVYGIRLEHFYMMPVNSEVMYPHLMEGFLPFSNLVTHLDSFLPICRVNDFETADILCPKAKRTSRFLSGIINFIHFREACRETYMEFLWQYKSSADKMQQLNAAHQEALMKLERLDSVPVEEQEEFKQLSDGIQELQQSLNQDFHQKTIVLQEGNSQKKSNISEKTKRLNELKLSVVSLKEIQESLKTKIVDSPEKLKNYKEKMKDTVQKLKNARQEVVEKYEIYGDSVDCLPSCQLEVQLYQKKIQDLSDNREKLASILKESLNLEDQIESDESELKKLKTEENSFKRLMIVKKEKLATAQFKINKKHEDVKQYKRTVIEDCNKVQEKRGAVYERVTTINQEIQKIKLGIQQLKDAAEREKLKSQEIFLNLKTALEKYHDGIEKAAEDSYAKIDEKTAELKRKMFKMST
T2 sequence (Q8NBT2 whole entry, chain 3 of 4): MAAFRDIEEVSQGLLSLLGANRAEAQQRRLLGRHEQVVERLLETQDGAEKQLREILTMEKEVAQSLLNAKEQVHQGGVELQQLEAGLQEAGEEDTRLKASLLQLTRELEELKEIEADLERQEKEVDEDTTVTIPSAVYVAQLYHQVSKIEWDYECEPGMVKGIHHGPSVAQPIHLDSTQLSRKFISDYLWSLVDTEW
T2 sequence (Q9HBM1 whole entry, chain 4 of 4): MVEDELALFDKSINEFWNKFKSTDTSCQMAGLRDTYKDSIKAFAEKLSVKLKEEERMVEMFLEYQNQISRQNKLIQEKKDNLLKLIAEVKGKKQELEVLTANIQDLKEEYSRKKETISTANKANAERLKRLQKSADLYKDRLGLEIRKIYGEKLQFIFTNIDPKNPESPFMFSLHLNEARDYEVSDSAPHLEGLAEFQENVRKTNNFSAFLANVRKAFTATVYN

Take “RRQSAAAASMKETNRRKSLHPI-AW [Dsn1^92–113 W96A R97A R98A, Dsn1^92–113 peptide with WRR linchpin substituted by three Ala residues]”: the “Kd / interaction of mutant Dsn1^92–113 peptide, in words” value at MIS12C (WT) was “completely abolished”.
On to B1, for which, in series [1], the binding result is reported as “binds”.
With B2, the binding result in series [2] is reported as “binds”.
As for B3, the “MIS12C–NDC80C interaction by SEC, in words” value (“MIS12C–NDC80C interaction” below) in the series with NDC80C is reported as “reduced the affinity of MIS12C for NDC80C”.
For B4, the “MIS12C–NDC80C interaction” value in the series with NDC80C is listed as “reduced the affinity of MIS12C for NDC80C”.
Turning to B5, the binding result in series [2] was “binds”.
For B6, in the series on NDC80C, the “MIS12C–NDC80C interaction” value is “completely abolished MIS12C–NDC80C interactions”.
With B7, in series [2], the binding result was “binds”.
